# Experimental data as given in the supplement of paper PMC9170038.
# Test system: MS2 coat protein
# Test: apparent KD of MS2 coat protein; higher = weaker reporter binding
# Conditions: Eterna round: R107; input ligand: arginine 13.2 mM
# Outline: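 Designed RNA switches were transcribed on-chip from Illumina sequencing clusters and titrated with SNAP-549-labelled MS2 coat protein in twofold steps from 0.7 or 1.5 nM up to 3 µM. Each step lasted 0.8–1.5 h at first and 10–20 min by the end, in 100 mM Tris-HCl pH 7.5, 80 mM KCl and 4 mM MgCl2, without or with constant ligand. Apparent KD is the median, for each design, of fits to normalised cluster binding curves.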
row,Sequence,apparent KD of MS2 coat protein
1,UGGUGCCCUGUAUACAUUGUAAUCCUAAUGCGAGGACCGGUACGGCCGCCACUCGUUGCGGAACAUGAGGAUCACCCAUGUAACA [theeternabot_exclusion_MS2_Trp_A_21],17 nM
2,UACUUGCUGACGGCCGCCACUAGAACAUGAGGAUCACCCAUGUAAGUGGUUGGUUCAUGGGUGACUAGGACCGGGUCAGCAAGAU [(Trp1)-(Ms2)-(T)'-(M)'-(Trp2)_Design19],26.9 nM
3,GGUGGUGGGACGGAUACCAGCCACCGCGGCAACGCAACAUGAGGAUCACCCAUGUUGGGUGGCCCUUGGCAGCUGUCCUGCGGCG [#1 Same State - Theophylline B Attempt #25 (HarryS)],12.6 nM
4,CAUGAAGUAACUGAUACCAGUGUACUGACAUGAGGAUCACCCAUGUUGGGUUUUGUUGUACACCCUUGGCAGCAGAAUCUUUAUG [AstrosExyTheB#4],50 nM
5,AGAUUCGACACGGCCGCCACUCGUGCCGGAUUACCGAGUGUCGAACAUGAGGAUCACCCAUGUACGAGGACCGGGUGUUGAGUCU [XTryp B #17],35.1 nM
6,GAGUCCGCGGCGGCCGCCACUCGCGAUAUAACAUGAUAUCAGGACAUGAGGAUCACCCAUGUCACGAGGACCGGGCCGAUCCUCA [Same State Typptophan B GF 5],17 nM
7,CUGCCAUGCAGAGAUACCAGUGAGCUCAUAACAUGAGGAUCACCCAUGUACGCCGCAGAUCACCCUUGGCAGCUCUGCAUGGCAG [!#*@)],8.21 nM
8,CAGCCUGGUUGGUAAAUCCCUCAUCGUGAUACCAGUCGAGUGAUCGACCCUUGGCAGCACAUGAGGAUCACCCAUGUGCUCGUAU [Diorqu],18.6 nM
9,UAUACAUGAGGAUCACCCAUGUACCAUGAAGGAGCGCAGAAAUCUGCAGGUAGGUCGCAUGGGUUAUGACCUCGGCAUAAUAACG [Enreusus],40.5 nM
10,GUUGUAUACUCGGCCGCCACUGAGAGAGUCAUGUAAACAUGAGGAUCACCCAUGUAAUAUAUAUACAGGACCGGGAGUAUGGUAA [4.F],12.1 nM
11,GGUGGUGUGACGGAUACCAGCCACCGCGGCAACGCAACAUGAGGAUCACCCAUGUUGGGUGGCCCUUGGCAGCUGUCGUGCGGCG [#1 Same State - Theophylline B Attempt #24 (HarryS)],40.1 nM
12,GCCGCGGCCGCGAUACACAUGGGUAUGUAACGAGGACCGGUACGGCCGCCACUCGAGAUAAUGUACAUGAGGAUCACCCAUGUAC [Exclusion Tryp A GF12],10.3 nM
13,UGUAUGUGAAGUGAUACCAGUCCAUAAACUGGAACAUGAGGAUCACCCAUGUAAUGGGUGGACCCUUGGCAGCACUUCUCAUACU [First try],48 nM
14,AGAUCUUUCGAAAGAAGGAUAAUGGCUGAUACCAGAGACGAAAGUCUCCCUUGGCAGCAGUGCCAACAUGAGGAUCACCCAUGUA [Theophylline A 14],110 nM
15,UGACCCUUCACGGCCGCCACUCAUUUUAAGUAGAGAGAGUACAUGAGGAUCACCCAUGUGAGAGAGAGGACCGGGUGAGAUGUUG [ss-trypB-0(N)],15.5 nM
16,AGACAUGAGGAUCACCCAUGUAGUACGGAUACCAGAUCCAGAUUUAUCCCUUGGCAGCUGUGGUACAGCGUUGCAACGCUCCUAG [Exclusion - Theophylline A (Freestyle 15)],13.6 nM
17,GGCCGUGCGAGCGCUCGCGUGGCCGCGGAUACCAGCGAGGUCCAUCGCCCUUGGCAGCCGAACAUGAGGAUCACCCAUGUCGGUA [#1 Same State - Theophylline A Attempt #14 (HarryS)],8.93 nM
18,ACAUGAGGAUCACCCAUGUGGCGACUUGAUACCAGACCCGCACUAGUCCCUUGGCAGCAACUACGUGAGGGUCACCCAUGUGAAG [vndullin],35.5 nM
19,GGCGGACUUAUAGAUACCAGCACAUGAGGAUCACCCAUGUAUGGUCGCACCUCAGUCCUGUGCCCUUGGCAGCUAUAAUAGAUUU [Esxeanbi],20.8 nM
20,AGAAUACAUGUUUUAAUACGGUUUACUGAUACCAGUGUAUCUAUUCACCCUUGGCAGCAGAGACAUGAGGAUCACCCAUGUAUUA [JR_Nu_ExcTheophyA_Sub022],25 nM
21,UCGUUUUAGUCGGCCGCCACUGAACUCAUGUUCAACAUGAGGAUCACCCAUGUACCUUAUUUUAACAGGACCGGGACGUAAUAGA [JR_ExcTryptoB_Sub001],165 nM
22,GGGUACAUCGCGGCCGCCACUUAUGUAAAUACAUGAGGAUCACCCAUGUCGAUGGAGACAUCGGUAAGGACCGGGUGAUGUACCG,168 nM
23,CGGUAGGUAGGUCGAUAUCUACCCGUAGAAGGAGCGUAAGAAAAUACAGGUAGGUCGCUACGGUACAUGAGCAUCAGCCAUGUCC [SSArg A #13 Alt-Ms2],10.5 nM
24,GUCACCAGGAGAAGGAGCGUGAAGACAUGAGGAUCACCCAUGUAGAGGCGCCGACGGCGUUCGCAGGUAGGUCGCUCCUGGUGAC [#1 Same State - Arginine B Attempt #17 (HarryS)],22 nM
25,ACUCGGUGUUUGUUGCUCCGAGUGUAUGAUACCAGUCAGUUUUAUGGCCCUUGGCAGCAUAGGACAUGAGGAUCACCCAUGUGUU [#01 SameState-TheophyllineA],32.9 nM
26,GAACAUGAGGAUCACCCAUGUUAAACAGAUACCAGUGAUAUAAUACACCCUUGGCAGCUGAAGCUGAAUAAUAAUUCCCUCAAGC [#21 SameState-TheophyllineA],13.4 nM
27,AAUUGGGUUGGUGAGGUGGUUGGAGGCGAUACCAGCGUGGAAACACGCCCUUGGCAGCGCCAGGACAUGAGGAUCACCCAUGUUA [Brno],48.9 nM
